Test [1] has as its target T1, human GPRC5D protein (human, UniProt Q9NZD1 1-345).
T1 construct: NCI-H929 cells express it endogenously in the functional assays; also called HuGPRC5D; huGPRC5D
Put plainly: flow cytometry, HEK293T-HuGPRC5D cells (sheet: 293T-huGPRC5D), PE anti-human IgG Fc secondary, MFI. How it is done:
(§1) Whether the anti-GPRC5D chimeric antibodies in the present invention could bind to the human GPRC5D protein or cynomolgus monkey GPRC5D protein stably expressed on the cell surface was determined by cell binding experiments.
(§2) The HEK293T-HuGPRC5D cell line and HEK293T-CynoGPRC5D shown in Table 2 were subjected to enzymatic digestion to obtain single cell suspensions of the two types of cells. The single cell suspensions were centrifuged at room temperature at 400×g, and then the media were discarded. The resulting cell pellets were washed once with PBS and then resuspended in the serially diluted anti-GPRC5D chimeric antibodies shown in Table 5 and the control antibody GC5B596 (at an initial concentration of 133.3 nM, 4-fold gradient dilution, 8 concentrations in total), and the cells were incubated at 4° C. for 30 min. The cells were washed once with PBS, and then fluorescent secondary antibody R-PE-conjugated AffiniPure Goat Anti-Human IgG, Fcγ Fragment Specific (Jackson ImmunoResearch, Cat #109-116-098) diluted in a 1:200 ratio was added. The cells were incubated in the dark at 4° C. for 30 min. The cells were washed twice with PBS and then resuspended, and finally, two-channel fluorescence signals were detected using a BD Accuri C5 (BD Bioscience) flow cytometer.
In general terms: A flow cytometer gives signals particle by particle.

Test [2] addresses T2, cynomolgus monkey GPRC5D protein (cynomolgus monkey, UniProt Q9NZD1 1-343 (human entry)).
T2 construct: also called CynoGPRC5D; on HEK293T-CynoGPRC5D cells
T2 chain: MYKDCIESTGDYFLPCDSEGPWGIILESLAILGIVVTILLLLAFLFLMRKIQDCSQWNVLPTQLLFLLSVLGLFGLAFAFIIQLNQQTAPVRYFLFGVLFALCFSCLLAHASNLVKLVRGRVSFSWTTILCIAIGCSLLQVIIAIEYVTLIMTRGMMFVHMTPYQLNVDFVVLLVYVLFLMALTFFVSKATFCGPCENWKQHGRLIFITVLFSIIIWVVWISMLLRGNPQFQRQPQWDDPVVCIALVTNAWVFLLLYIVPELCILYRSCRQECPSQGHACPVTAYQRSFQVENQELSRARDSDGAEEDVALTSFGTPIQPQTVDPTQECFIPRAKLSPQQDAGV
Put plainly: flow cytometry, HEK293T-CynoGPRC5D cells (sheet: 293T-cynoGPRC5D), PE anti-human IgG Fc secondary, MFI. As for the experimental part:
as §1, §2

Test [3] concerns the target T1, human GPRC5D protein. The experiment in a line: flow cytometry, HEK293T cells stably expressing human GPRC5D (sheet: 293T-huGPRC5D), PE anti-human IgG Fc secondary, MFI. As for the experimental part: (2) Whether the anti-CD3/anti-GPRC5D bispecific antibodies in the present invention could bind to HEK293T cells stably expressing the human GPRC5D protein was determined by cell binding experiments. […] The plate was centrifuged at room temperature at 400×g, and then the supernatant was discarded. The cells were washed twice with PBS and centrifuged. The supernatant was discarded. The cell pellet was resuspended in fluorescent secondary antibody R-PE-conjugated AffiniPure Goat Anti-Human IgG, Fcγ Fragment Specific (Jackson ImmunoResearch, Cat #109-116-098) diluted in a 1:200 ratio. The cells were incubated in the dark at 4° C. for 30 min. The cells were washed twice with PBS, and 100 μL of PBS was added to each well to resuspend the cells. Fluorescence signals were detected using a Beckman Cytoflex flow cytometer.

The target in test [4] is T1, human GPRC5D protein. Put plainly: flow cytometry, HEK293T-HuGPRC5D cells (sheet: 293T-huGPRC5D), PE anti-human IgG Fc secondary, MFI. As for the experimental part: Whether the anti-GPRC5D humanized antibodies in the present invention could bind to the human GPRC5D protein stably expressed on the cell surface was determined by cell binding experiments. The HEK293T-HuGPRC5D cell line shown in Table 2 was subjected to enzymatic digestion to obtain a single cell suspension of the HEK293T-huGPRC5D cells. The single cell suspension was centrifuged at room temperature at 400×g, and then the medium was discarded. The cell pellet was washed once with PBS and then resuspended in the serially diluted anti-GPRC5D humanized antibodies and the murine chimeric antibody 29H12C9 (at an initial concentration of 166.67 nM, 4-fold gradient dilution, 8 concentration points in total), and the cells were incubated at 4° C. for 30 min. The cells were washed once with PBS, and then fluorescent secondary antibody R-PE-conjugated AffiniPure Goat Anti-Human IgG, Fcγ Fragment Specific (Jackson ImmunoResearch, Cat #109-116-098) diluted in a 1:200 ratio was added. The cells were incubated in the dark at 4° C. for 30 min. The cells were washed twice with PBS and then resuspended, and finally, two-channel fluorescence signals were detected using a Beckman Cytoflex flow cytometer.
The source holds these as a separate data set.

T1 sequence (Q9NZD1 whole entry): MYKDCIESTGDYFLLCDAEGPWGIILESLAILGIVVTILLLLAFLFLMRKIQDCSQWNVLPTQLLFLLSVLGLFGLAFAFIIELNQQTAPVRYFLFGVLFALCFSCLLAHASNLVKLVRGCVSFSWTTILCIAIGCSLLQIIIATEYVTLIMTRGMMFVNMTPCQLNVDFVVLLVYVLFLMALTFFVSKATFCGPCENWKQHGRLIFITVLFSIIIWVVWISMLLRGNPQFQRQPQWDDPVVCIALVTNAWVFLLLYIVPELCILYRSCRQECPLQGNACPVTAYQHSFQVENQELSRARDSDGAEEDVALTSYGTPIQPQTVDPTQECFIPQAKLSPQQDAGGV

B1: chimeric antibody 39A9F1 (antibody, human IgG1, kappa, V domains shown)
VH: QVQLQQPGAELVKPGSSVKLSCKASGYTFTTYWMEWVKQRPGQGLEWIGEINPNNGRSNYNEKFQTKATLTVDKSSSTAYMQFSSLTSEDSAVYYCARERAGLTYWGQGTLVIVSA
VL: DVVMTQTPLSLPVSLGDQASISCRSSQSLVHSNGNTYLHWYLQKPGQSPKLLIYKVSNRFSGVPDRFGGSGSGTDFTLKISRVEAEDLGVYFCSQSTHFPYTFGGGTKLEIKR
notes: Murine variable regions on human IgG1 and kappa constant regions
As to B1, the results for the “EC50 (read off the curve)” value (in the test with human GPRC5D protein [1]; in test [2]) were roughly 3 nM and roughly 4 nM, respectively.

B2: chimeric antibody 29H12C9 (antibody, human IgG1, kappa, V domains shown)
VH: QVQLQQPGAELVKPGASVKLSCKASGYTFTTHYMYWVKQRPGQGLEWIGGINPSNGATNFNEKFKTKATLTVDKSSSTAYMQLSSLTSEDSAVYYCTRVGGLSYTMDYWGQGTSVTVSS
VL: DIVMSQSPSSLAVSVGEKVSMSCKSSQSLLYSSNQKNYLAWYQQKPGQSPKLLIYWASTRESGVPDRFTGSGYGTDFTLTISSMKAEDLAVYYCQQYYSYPRTFGGGTKLDIKR
notes: also called murine chimeric antibody 29H12C9; murine control antibody (29H12C9)
Turning to B2, the “EC50 (read off the curve)” value (in the test with human GPRC5D protein [1]; in test [2]) was roughly 3 nM each time.

B3: anti-CD3/GPRC5D bispecific antibody Bi-29H6-1 (bispecific antibody)
chain: EPKSSDKTHTCPPCPAPEAAGGPSVFLFPPKPKDTLMISRTPEVTCVVVAVSHEDPEVKFNWYVDGVEVHNAKTKPREEQYNSTYRVVSVLTVLHQDWLNGKEYKCKVSNKALAAPIEKTISKAKGQPREPQVCTLPPSRDELTKNQVSLSCAVKGFYPSDIAVEWESNGQPENNYKTTPPVLDSDGSFFLVSKLTVDKSRWQQGNVFSCSVMHEALHNHYTQKSLSLSPGK
heavy: not shown
light: not shown
As for B3, the “EC50 (read off the curve)” value in the test with human GPRC5D protein [3] was roughly 6 nM.

B4: anti-CD3/GPRC5D bispecific antibody Bi-29H6-3 (bispecific antibody)
chain: EPKSSDKTHTCPPCPAPEAAGGPSVFLFPPKPKDTLMISRTPEVTCVVVAVSHEDPEVKFNWYVDGVEVHNAKTKPREEQYNSTYRVVSVLTVLHQDWLNGKEYKCKVSNKALAAPIEKTISKAKGQPREPQVCTLPPSRDELTKNQVSLSCAVKGFYPSDIAVEWESNGQPENNYKTTPPVLDSDGSFFLVSKLTVDKSRWQQGNVFSCSVMHEALHNHYTQKSLSLSPGK
heavy: not shown
light: not shown
On to B4, for which the “EC50 (read off the curve)” value in the test with human GPRC5D protein [3] is roughly 10 nM.

B5: humanized anti-GPRC5D antibody 29H2 (antibody, human IgG1, kappa, V domains shown)
VH: QVQLVQSGAEVKKPGASVKVSCKASGYTFTTHYMYWVRQAPGQGLEWMGGINPSNGATNFNEKFKTRVTLTVDKSTSTAYMELSSLRSEDTAVYYCTRVGGLSYTMDYWGQGTLVTVSS
VL: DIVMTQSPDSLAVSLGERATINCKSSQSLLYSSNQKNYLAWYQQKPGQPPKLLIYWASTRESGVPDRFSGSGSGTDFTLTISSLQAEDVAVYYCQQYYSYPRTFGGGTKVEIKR
notes: Human IgG1 / kappa
In the case of B5, in the test with human GPRC5D protein [4], the binding result is given as “binds”.

B6: humanized anti-GPRC5D antibody 29H24 (antibody, human IgG1, kappa, V domains shown)
VH: QVQLVQSGAEVKKPGASVKVSCKASGYTFTTHYMYWVKQAPGQGLEWIGGINPSNGATNFNEKFKTKATLTVDKSISTAYMELSRLRSDDTAVYYCTRVGGLSYTMDYWGQGTLVTVSS
VL: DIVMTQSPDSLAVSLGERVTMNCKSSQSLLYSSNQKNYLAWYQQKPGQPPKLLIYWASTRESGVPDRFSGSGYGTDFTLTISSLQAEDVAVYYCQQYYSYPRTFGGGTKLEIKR
notes: Human IgG1 / kappa
For the molecule B6, the binding result in the test with human GPRC5D protein [4] is “binds”.

B7: humanized anti-GPRC5D antibody 29H6 (antibody, human IgG1, kappa, V domains shown)
VH: QVQLVQSGAEVKKPGASVKVSCKASGYTFTTHYMYWVRQAPGQGLEWIGGINPSNGATNFNEKFKTKATLTVDKSTSTAYMELSSLRSEDTAVYYCTRVGGLSYTMDYWGQGTLVTVSS
VL: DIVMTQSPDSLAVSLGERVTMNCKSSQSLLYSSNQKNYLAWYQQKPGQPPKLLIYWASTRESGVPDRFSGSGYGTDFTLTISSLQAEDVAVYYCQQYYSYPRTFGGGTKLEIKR
notes: Human IgG1 / kappa
Regarding B7, the binding result with human GPRC5D protein [4] is reported as “binds”.

B8: humanized anti-GPRC5D antibody 29H20 (antibody, human IgG1, kappa, V domains shown)
VH: QVQLVQSGAEVKKPGASVKVSCKASGYTFTTHYMYWVRQAPGQGLEWIGGINPSNGATNFNEKFKTRVTLTVDKSISTAYMELSRLRSDDTAVYYCTRVGGLSYTMDYWGQGTLVTVSS
VL: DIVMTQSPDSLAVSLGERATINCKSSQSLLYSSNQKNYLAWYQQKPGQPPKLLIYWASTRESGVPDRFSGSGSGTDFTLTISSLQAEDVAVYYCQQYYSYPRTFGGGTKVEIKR
notes: Human IgG1 / kappa
As for B8, in the test with human GPRC5D protein [4], the binding result is reported as “binds”.

B9: humanized anti-GPRC5D antibody 29H21 (antibody, human IgG1, kappa, V domains shown)
VH: QVQLVQSGAEVKKPGASVKVSCKASGYTFTTHYMYWVRQAPGQGLEWIGGINPSNGATNFNEKFKTRVTLTVDKSISTAYMELSRLRSDDTAVYYCTRVGGLSYTMDYWGQGTLVTVSS
VL: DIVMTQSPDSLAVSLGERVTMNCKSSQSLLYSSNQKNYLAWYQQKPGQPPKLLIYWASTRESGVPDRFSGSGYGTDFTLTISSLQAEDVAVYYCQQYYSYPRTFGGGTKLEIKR
notes: Human IgG1 / kappa
Turning to B9, the binding result in the test with human GPRC5D protein [4] is listed as “binds”.

B10: anti-CD3/GPRC5D bispecific antibody Bi-29H6/23L2 (bispecific antibody, human IgG1, kappa, L234A L235A)
heavy 1: QVQLVQSGAEVKKPGASVKVSCKASGYTFTTHYMYWVRQAPGQGLEWIGGINPSNGATNFNEKFKTKATLTVDKSTSTAYMELSSLRSEDTAVYYCTRVGGLSYTMDYWGQGTLVTVSSASTKGPSVFPLAPSSKSTSGGTAALGCLVKDYFPEPVTVSWNSGALTSGVHTFPAVLQSSGLYSLSSVVTVPSSSLGTQTYICNVNHKPSNTKVDKKVEPKSCDKTHTCPPCPAPEAAGGPSVFLFPPKPKDTLMISRTPEVTCVVVAVSHEDPEVKFNWYVDGVEVHNAKTKPREEQYNSTYRVVSVLTVLHQDWLNGKEYKCKVSNKALAAPIEKTISKAKGQPREPQVCTLPPSRDELTKNQVSLSCAVKGFYPSDIAVEWESNGQPENNYKTTPPVLDSDGSFFLVSKLTVDKSRWQQGNVFSCSVMHEALHNHYTQKSLSLSPGK
heavy 2: not shown
light: not shown
As to B10, in the test with human GPRC5D protein [3], the “EC50 (read off the curve)” value was roughly 3 nM.

B11: anti-CD3/GPRC5D bispecific antibody Bi-29H6-2 (bispecific antibody, human IgG1, kappa, L234A L235A)
heavy 1: QVQLVQSGAEVKKPGASVKVSCKASGYTFTTHYMYWVRQAPGQGLEWIGGINPSNGATNFNEKFKTKATLTVDKSTSTAYMELSSLRSEDTAVYYCTRVGGLSYTMDYWGQGTLVTVSSASTKGPSVFPLAPSSKSTSGGTAALGCLVKDYFPEPVTVSWNSGALTSGVHTFPAVLQSSGLYSLSSVVTVPSSSLGTQTYICNVNHKPSNTKVDKKVEPKSCDKTHTCPPCPAPEAAGGPSVFLFPPKPKDTLMISRTPEVTCVVVAVSHEDPEVKFNWYVDGVEVHNAKTKPREEQYNSTYRVVSVLTVLHQDWLNGKEYKCKVSNKALAAPIEKTISKAKGQPREPQVCTLPPSRDELTKNQVSLSCAVKGFYPSDIAVEWESNGQPENNYKTTPPVLDSDGSFFLVSKLTVDKSRWQQGNVFSCSVMHEALHNHYTQKSLSLSPGK
heavy 2: not shown
light: not shown
As for B11, the “EC50 (read off the curve)” value with human GPRC5D protein [3] is roughly 2 nM.

B12: anti-CD3/GPRC5D bispecific antibody Bi-29H6GE/23L2 (bispecific antibody, human IgG1, kappa, L234A L235A)
heavy 1: QVQLVQSGAEVKKPGASVKVSCKASGYTFTTHYMYWVRQAPGQGLEWIGGINPSNEATNFNEKFKTKATLTVDKSTSTAYMELSSLRSEDTAVYYCTRVGGLSYTMDYWGQGTLVTVSSASTKGPSVFPLAPSSKSTSGGTAALGCLVKDYFPEPVTVSWNSGALTSGVHTFPAVLQSSGLYSLSSVVTVPSSSLGTQTYICNVNHKPSNTKVDKKVEPKSCDKTHTCPPCPAPEAAGGPSVFLFPPKPKDTLMISRTPEVTCVVVAVSHEDPEVKFNWYVDGVEVHNAKTKPREEQYNSTYRVVSVLTVLHQDWLNGKEYKCKVSNKALAAPIEKTISKAKGQPREPQVCTLPPSRDELTKNQVSLSCAVKGFYPSDIAVEWESNGQPENNYKTTPPVLDSDGSFFLVSKLTVDKSRWQQGNVFSCSVMHEALHNHYTQKSLSLSPGK
heavy 2: not shown
light: not shown
With B12, in the test with human GPRC5D protein [3], the “EC50 (read off the curve)” value is roughly 3 nM.

B13: anti-CD3/GPRC5D bispecific antibody Bi-29H6-5 (bispecific antibody, human IgG1, kappa, L234A L235A)
heavy 1: QVQLVQSGAEVKKPGASVKVSCKASGYTFTTHYMYWVRQAPGQGLEWIGGINPSSGATNFNEKFKTKATLTVDKSTSTAYMELSSLRSEDTAVYYCTRVGGLSYTMDYWGQGTLVTVSSASTKGPSVFPLAPSSKSTSGGTAALGCLVKDYFPEPVTVSWNSGALTSGVHTFPAVLQSSGLYSLSSVVTVPSSSLGTQTYICNVNHKPSNTKVDKKVEPKSCDKTHTCPPCPAPEAAGGPSVFLFPPKPKDTLMISRTPEVTCVVVAVSHEDPEVKFNWYVDGVEVHNAKTKPREEQYNSTYRVVSVLTVLHQDWLNGKEYKCKVSNKALAAPIEKTISKAKGQPREPQVCTLPPSRDELTKNQVSLSCAVKGFYPSDIAVEWESNGQPENNYKTTPPVLDSDGSFFLVSKLTVDKSRWQQGNVFSCSVMHEALHNHYTQKSLSLSPGK
heavy 2: not shown
light: not shown
In the case of B13, the binding result with human GPRC5D protein [3] was “binds”.

For orientation: EC50 (read off the curve) means the concentration at which the effect is half-maximal.

Source of the values: US20250092135A1 (NANJING LEADS BIOLABS, published 2025).
